The target of series [1] is T1, ADAMTS5 (Homo sapiens, UniProt Q9UNA0).
T1 construct: purchased R&D systems
T1 sequence (Q9UNA0 262-930): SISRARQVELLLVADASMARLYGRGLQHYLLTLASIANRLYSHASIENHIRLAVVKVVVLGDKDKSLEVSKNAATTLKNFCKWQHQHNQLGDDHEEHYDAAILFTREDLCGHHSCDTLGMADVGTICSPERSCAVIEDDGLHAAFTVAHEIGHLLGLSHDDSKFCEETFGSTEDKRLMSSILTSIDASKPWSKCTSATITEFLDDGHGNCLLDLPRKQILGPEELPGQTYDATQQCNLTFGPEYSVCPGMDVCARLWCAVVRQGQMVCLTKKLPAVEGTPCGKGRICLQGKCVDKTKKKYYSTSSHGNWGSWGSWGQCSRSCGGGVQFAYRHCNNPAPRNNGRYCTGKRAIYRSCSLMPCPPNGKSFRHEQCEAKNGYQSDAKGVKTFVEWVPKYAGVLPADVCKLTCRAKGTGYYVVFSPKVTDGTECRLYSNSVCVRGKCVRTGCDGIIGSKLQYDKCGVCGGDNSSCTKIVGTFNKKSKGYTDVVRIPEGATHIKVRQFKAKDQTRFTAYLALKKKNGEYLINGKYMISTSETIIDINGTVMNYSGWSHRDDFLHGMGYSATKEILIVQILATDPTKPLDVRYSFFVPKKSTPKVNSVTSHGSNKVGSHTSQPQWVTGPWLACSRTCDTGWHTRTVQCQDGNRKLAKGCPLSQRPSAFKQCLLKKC
In words: binding activity to ADAMTS5 by surface plasmon resonance (Biacore T100). The conditions noted are these: for binding activity: Table 7. As for the experimental part:
The binding activity of aptamers having the nucleotide sequences shown in SEQ ID NOs: 1 and 2 to ADAMTS5 was evaluated by the surface plasmon resonance method. Biacore T100 manufactured by GE Healthcare was used for the measurement. The SA chip was used as the sensor chip, which had streptavidin immobilized thereon. About 800 RU of a 16-nucleotide Poly dT with biotin at the 5′-terminal was bound on the chip. […] ADAMTS5 for analyte was prepared at 0.1 μM, and injected at a flow rate of 30 μL/min for 60 sec. As the running buffer, solution C was used. The solution C is a mixed solution of 300 mM sodium chloride, 5.4 mM potassium chloride, 1.8 mM calcium chloride, 0.8 mM magnesium chloride, 20 mM tris (pH 7.6), and 0.05% Tween20.
SEQ ID NO: 2 has a sequence with one base deletion from the continuous 4 G bases in the consensus sequence, and it was shown from the measurement results of the binding activity that the continuous 4 G bases in the consensus sequence are important for the activity of aptamers. Sensorgram showing the binding of an aptamer having the nucleotide sequence shown in SEQ ID NO: 1 to ADAMTS5 is presented in FIG. 2. In Table 1, “++” indicates those with the proportion of ADAMTS5 binding amount (RU value) to the amount of aptamer immobilized on the SA chip (RU value) of not less than 40%, “+” indicates those with the proportion of not less than 10% and less than 40%, and “−” indicates those with the proportion of less than 10%.
The binding activity and enzyme inhibitory activity of aptamers having nucleotide sequences shown in SEQ ID NOs: 16-25 to ADAMTS5 were measured. The binding activity was evaluated by the surface plasmon resonance method. For the measurement, a method similar to that in Example 1 was used. The enzyme inhibitory activity was measured by a method similar to that in Example 1. […] The negative control nucleic acid refers to the nucleic acid pool used in the first round of the SELEX method. The “++” indicates those with the proportion of ADAMTS5 binding amount (RU value) to the amount of aptamer immobilized on the SA chip (RU value) of not less than 40%, and “+” indicates those with the proportion of less than 40%. […] “n.d.” means not determined.
The binding activity of the nucleic acids shown in SEQ ID NOs: 30-45 to ADAMTS5 was measured. The binding activity was evaluated by the surface plasmon resonance method. In the Table, “++” indicates those with the proportion of ADAMTS5 binding amount (RU value) to the amount of aptamer immobilized on the SA chip (RU value) of not less than 40%, “+” indicates those with the proportion of not less than 10% and less than 40%, and “−” indicates those with the proportion of less than 10%.

In series [2] the target is T1, ADAMTS5. Kind of series: ADAMTS5 enzyme inhibition, aggrecan G1-IGD-G2 cleavage, SDS-PAGE detection (evaluation method 1). The class given is biochemical. As for the experimental part:
Whether an aptamer having the nucleotide sequence shown in SEQ ID NO: 1 inhibits the enzyme activity of ADAMTS5 was evaluated by the following method. As a substrate of ADAMTS5, the G1-IGD-G2 domain of aggrecan (manufactured by R&D systems) was used. ADAMTS5 specifically cleaves in between the 392nd glutamic acid and the 393rd alanine in the G1-IGD-G2 domain and produces two fragments. These fragments have faster electrophoretic mobility than uncleaved G1-IGD-G2. Thus, the enzyme activity of ADAMTS5 can be measured by quantifying the band intensity of G1-IGD-G2 by SDS-PAGE electrophoresis. The assay was performed in a solution A buffer with a reaction mixture volume of 10 μL. First, a mixture (10 μL) of a nucleic acid and ADAMTS5 was prepared and incubated at 25° C. for 15 min. To a substrate solution (5 μL) diluted with solution A was added a mixture (5 μL) of the nucleic acid and ADAMTS5 to start the enzyme reaction. The final concentration of ADAMTS5 in the reaction solution was 5 nM, and the final substrate concentration was 50 μg/mL. The reaction solution was incubated at 37° C. for 2 hr, 2 μL of solution D was added, and the mixture was heated at 95° C. for 2 min to stop the enzyme reaction of ADAMTS5. Solution D contains 0.25 M tris (pH 6.8), 10% SDS, 50% glycerol, 0.25% bromo phenolblue, and 20% 2-mercaptoethanol. The heat-treated reaction solution was electrophoresed by 7.5% SDS-PAGE and stained with SYPRO Orange (manufactured by Sigma-Aldrich). The staining was performed according to the manual of Sigma-Aldrich and detected using STORM840 manufactured by GE Healthcare. For analytical curves, uncleaved substrates 1000 ng, 400 ng, 160 ng, 64 ng, 25.6 ng, 10.24 ng, and 4.1 ng were electrophoresed, and staining and detection were performed in the same manner. The amount of uncleaved substrate in each reaction solution was quantified from the band intensity and the standard curve. The substrate cleavage efficiency of ADAMTS5 under these reaction conditions was 80-100%. The inhibition rate of the test substance was calculated using the following equation. inhibition rate (%)=(Sapt−SE)/(S0−SE)×100 wherein Sapt is the amount of an uncleaved substrate with the addition of a test substance, SE is the residual amount of an uncleaved substrate with the addition of ADAMTS5, and S0 is the residual amount of an uncleaved substrate without the addition of ADAMTS5.
The concentration of an inhibitor necessary for inhibiting 50% of the enzyme activity (IC50) was determined. IC50 is a mean of four measurements.

The source of these data is patent US11473089B2, “Aptamer for ADAMTS5 and use for aptamer for ADAMTS5” (RIBOMIC INC., priority 2017, dated 2022).

Numbering of substitutions follows the chain as printed.

B1: 1 (nucleic acid)
chain: GGGUACGACCGUCGUACGAUUGGGGCCUCCACAGCUGCUCAGCUUGGACUAAACCAAUAAGAGACUAACGCCUAGCGUAC
modifications: 2'-fluoro at CU, RNA at AG, backbone not given here
One may read the IC50 as the concentration that gives 50% inhibition. For B1, in the series with ADAMTS5 [1] (Table 1, 0.1 μM ADAMTS5 analyte, aptamer immobilized on SA chip), the “binding activity by Biacore” value is “++ (proportion of ADAMTS5 binding amount (RU value) to the amount of aptamer immobilized on the SA chip (RU value) of not less than 40%)”. Also, the “binding to ADAMTS5 (in words)” value with ADAMTS5 [1] (surface plasmon resonance) is recorded as “binds to ADAMTS5”. In the series with ADAMTS5 [2] (Table 2, mean of four measurements, 5 nM ADAMTS5, 50 μg/mL substrate, read-out: IC50, inhibitory activity against ADAMTS5), the IC50 worked out at 16.8 ± 2.8 nM.

B2: 21 (nucleic acid)
chain: GGGACAUGCGUAACUAUAUAGGGGCCUCCACAGCUGUAAAGCUUGGACUUAAACCAUAUAGAGUCCAGAUCGAGCA
modifications: 2'-fluoro at CU, RNA at AG, backbone not given here
In the case of B2, in the series with ADAMTS5 [1], the binding activity result is reported as “++ (proportion of ADAMTS5 binding amount (RU value) to the amount of aptamer immobilized on the SA chip (RU value) of not less than 40%)”. For the same molecule, the “inhibitory activity % 10 nM aptamer” value with ADAMTS5 [2] (Table 7) was 56.9%. For the same molecule, the “inhibitory activity % 30 nM aptamer” value with ADAMTS5 [2] (Table 8) amounted to 78.8%.

B3: 19 (nucleic acid)
chain: GGGACAUGCGUAACUUGAUAGGGGCCUCCACAGCUGAUAAGCUUGGACUCAAACCAUCAAGUCCAGAUCGAGCA
modifications: aptamer; 2'-fluoro at CU, RNA at AG, backbone not given here
Regarding B3, the binding activity result with ADAMTS5 [1] is “+ (proportion of less than 40%)”. In the series with ADAMTS5 [2] (Table 7), the “inhibitory activity % 10 nM aptamer” value came to 2.9% and the “inhibitory activity % 30 nM aptamer” value turned out to be 93.5%.

B4: 17 (nucleic acid)
chain: B3 chain with U16G, G17U, U38A, C58A, A59C
modifications: aptamer; 2'-fluoro at CU, RNA at AG, backbone not given here
In the case of B4, the binding activity entry with ADAMTS5 [1] is reported as “+ (proportion of less than 40%)”. For the same molecule, in the series with ADAMTS5 [2] (Table 7), the “inhibitory activity % 10 nM aptamer” value is 12.3% and the “inhibitory activity % 30 nM aptamer” value was 88.2%.

B5: 25 (nucleic acid)
chain: B3 chain with U16G, G17C, G36A, A37U, A39C, U49A, C58G, A59C
modifications: aptamer; 2'-fluoro at CU, RNA at AG, backbone not given here
In the case of B5, the binding activity result with ADAMTS5 [1] is given as “++ (proportion of ADAMTS5 binding amount (RU value) to the amount of aptamer immobilized on the SA chip (RU value) of not less than 40%)”. Moreover, in the series with ADAMTS5 [2] (Table 7, 20 nM aptamer), the “inhibitory activity % 20 nM aptamer” value is given as 72.1%.

B6: 22 (nucleic acid)
chain: B3 chain with U16G, G17C, G36A, A37U, A39C, U49A, C58G, A59C
modifications: aptamer; 2'-fluoro at CU, RNA at AG, backbone not given here
Consider B6, for which the binding activity entry in the series with ADAMTS5 [1] is given as “++ (proportion of ADAMTS5 binding amount (RU value) to the amount of aptamer immobilized on the SA chip (RU value) of not less than 40%)”. Besides, the “inhibitory activity % 10 nM aptamer” value in the series with ADAMTS5 [2] (Table 7) is on record as 14.8%.

B7: 18 (nucleic acid)
chain: B3 chain with U16G, G17C, A20C, A30G, A37U, U44C, C58G, A59C
modifications: aptamer; 2'-fluoro at CU, RNA at AG, backbone not given here
Consider B7, for which, in the series with ADAMTS5 [1], the binding activity result is “+ (proportion of less than 40%)”. Besides, in the series with ADAMTS5 [2] (Table 7), the “inhibitory activity % 10 nM aptamer” value was determined as 2.9% and the “inhibitory activity % 30 nM aptamer” value is given as 90.4%.

B8: 23 (nucleic acid)
chain: B3 chain with U16G, G17U, U38A, C58A, A59C
modifications: aptamer; 2'-fluoro at CU, RNA at AG, backbone not given here
Regarding B8, the binding activity result in the series with ADAMTS5 [1] was “++ (proportion of ADAMTS5 binding amount (RU value) to the amount of aptamer immobilized on the SA chip (RU value) of not less than 40%)”. For the same molecule, the “inhibitory activity % 10 nM aptamer” value with ADAMTS5 [2] (Table 7) was 14.5%.

B9: 16 (nucleic acid)
chain: B3 chain with A30G, A39C, U44C
modifications: aptamer; 2'-fluoro at CU, RNA at AG, backbone not given here
For the molecule B9, the binding activity entry with ADAMTS5 [1] is listed as “+ (proportion of less than 40%)”. For the same molecule, in the series with ADAMTS5 [2] (Table 7), the “inhibitory activity % 10 nM aptamer” value was found to be 46.3% and the “inhibitory activity % 30 nM aptamer” value is 93.6%.

B10: 24 (nucleic acid)
chain: B3 chain with U35C, A37G, A40G
modifications: aptamer; 2'-fluoro at CU, RNA at AG, backbone not given here
Regarding B10, the binding activity entry with ADAMTS5 [1] is listed as “++ (proportion of ADAMTS5 binding amount (RU value) to the amount of aptamer immobilized on the SA chip (RU value) of not less than 40%)”. Moreover, the “inhibitory activity % 10 nM aptamer” value with ADAMTS5 [2] (Table 7) came out at 20.2%.

B11: 20 (nucleic acid)
chain: GGGACAUGCGUAACUGUAUAGGGGCCUCCGCAGCUAUUCAGCUCGGACAUAAACCAUACAGUCCAGAUCGAGCA
modifications: aptamer; 2'-fluoro at CU, RNA at AG, backbone not given here
On to B11, for which the binding activity result with ADAMTS5 [1] is “+ (proportion of less than 40%)”. In the series with ADAMTS5 [2] (Table 7), the “inhibitory activity % 10 nM aptamer” value is 15.5% and the “inhibitory activity % 30 nM aptamer” value is recorded as 111.1%.
